Test results taken from patent publication US20150182631A1, “SYSTEM FOR […]-BASED ACTIVE INGREDIENTS” (Centre National De La Recherche Scientifique-CNRS, priority 2012, published 2015).

Legend:
Assay type in all cases: physicochemical
[1] = FRET kinetics of subunit exchange (tetramer dissociation)
Method: The speed of the exchange of subunits was measured by the same technique. The reaction is initiated by mixing the same volume of XCL-RITC (1 μM) and of XCL-FITC (1 μM) at 25° C. in 50 mM of phosphate buffer, 100 mM NaCl, pH 8.5. The excitation is carried out at 468 nm and the fluorescence emission at 580 nm is recorded every 0.5 seconds. The fluorescence intensity is normalised by using the equation: […]
where F(t) represents the experimental fluorescence in the time considered, F0 the value of the initial fluorescence, and F∞ the value of the final fluorescence when the state of equilibrium is reached. The kinetic data was modelled with the GOSA software (Czaplicki et al. (2006)). The best model was obtained for a double exponential of equation:
F=1−[a×e^−k^1^t+(1−a)×e^−k^2^t]
where: a represents the proportion of molecules at slow dissociation, k1 the kinetic constant of the slow dissociation and k2 the kinetic constant of the fast dissociation.
The dissociation kinetic of the tetramer was studied by mixing XCL-FITC and XCL-RITC and by measuring the fluorescence emission intensity at 580 nm as a function of time (FIG. 6).
The increase in the fluorescence intensity and therefore the effectiveness of the transfer between the fluorescein and the rhodamine are the result of two successive phenomena: firstly the dissociation of the tetramers into dimers and secondly their reassociation. Considering the shape of the curve (FIG. 6), no lag time is observed at the beginning of the kinetics which implies that the speed of reassociation is much faster than the speed of dissociation. It can therefore be considered that the speed of reassociation is negligible in this case. The kinetic data obtained was modelled using the GOSA software. The most suitable model for describing the phenomenon observed is a double exponential growth with two dissociation reactions that have difference speeds: […]

[2] = Thermal dissociation by NMR DOSY
Method: The thermal dissociation was also followed by DOSY experiments (Diffusion Ordered SpectrometrY). The ratio of the hydrodynamic radius of XCL and of the dioxane were measured according to the temperature (FIG. 9).
If the tetramer is dissociated by increasing the temperature, a decrease in this ratio is expected and therefore of the hydrodynamic radius of XCL. […] After 50° C., the protein sample precipitates out as already described in the fluorescence experiments with tryptophan.

[3] = Chemical dissociation by size exclusion chromatography at acidic pH
Method: The size exclusion chromatography experiments were carried out on a GE-Healthcare Superose 12 PC 3.2/30 column. The columns are pre-balanced in the buffer tested, namely phosphate buffer 50 mM, 100 mM NaCl, pH7.2 or pH 4.4 in the absence or in the presence of 0.003% of SDS. The flow rate is 0.5 mL/min. The BSA and the RNase A are used as a size marker.
The inventors studied the behaviour of XCL in denaturing chemical conditions close to those encountered in the lysosomes. The analysis was carried out via exclusion chromatography with an acidic pH (pH 4.4). It appears that the elution peak of XCL in these denaturing conditions is displaced to greater elution volumes showing the appearance of a smaller size. When 0.003% SDS is added, the elution peak is displaced to the elution volume of the RNAse A which has a molecular weight close to the XCL monomer.
The behaviour of the oxidised mutant A38C was also analysed. […] The addition of the disulphide bridge therefore increases the stability of the protein assembly.

[4] = Thermal dissociation by tryptophan fluorescence
Text: The thermal dissociation of XCL was followed by measuring the intrinsic fluorescence of the tryptophans. Each monomer of XCL contains 3 tryptophan residues: one in a hydrophobic cavity (Trp 77) and two located on the same interface between two monomers (Trp 27 and Trp 35). The inventors used these latter two Trp as probes for the quaternary structure of XCL, by taking advantage of their position in the structure of the tetramer. In order to increase the sensitivity of the measurement, the ratio of the fluorescence intensities 346 nm/330 nm was measured according to the temperature (FIG. 8).

[5] = SDS-PAGE of tetramer and disulphide bridge stability; conditions: 2% of SDS, not heated before deposit
Method: The clone A38C was obtained by directed mutagenesis by using the XCL plasmid as a matrix and the protein produced and purified by using the same protocol as that used to produce XCL (Trigueros et al. (2003)). A yield of 25 mg of purified protein per litre of culture was obtained. The last part of the protocol consisted in a step of oxidation for 12 hours in the presence of 10 mM of oxidised glutathione. This step is required in order to produce disulphide bridges between the monomers. The forming of these covalent bonds was verified by SDS-PAGE. Two SDS-PAGE were prepared. Beta-mercaptoethanol was added to the samples in the first gel while beta-mercaptoethanol was not added to the second gel. When XCL is heated to 95° C. 5 min before the deposit, a single band is observed with a molecular weight slightly greater than 20 kDa on the two gels. This band corresponds to the species in monomer form.
A variant T12C was produced in the same manner as A38C by directed mutagenesis by using the XCL plasmid as a matrix. By using the same protocol, 10 mg of protein per litre of culture were produced. The oxidation rate of the variant T12C was sought by using the same method by SDS-PAGE as for A38C. These rates were compared with those obtained with the variant A38C. Several oxidative conditions were tested with different concentrations of reduced glutathione. […]

[6] = FRET on dilution, tetramer equilibrium
Method: The mixture of FITC-XCL and RITC-XCL was diluted to various concentrations and incubated for 1 hour at ambient temperature. The fluorescence spectrum was recorded with a light excitation at 468 nm. In order to substantially determine the decrease in the energy transfer and normalise the intensity of the fluorescence, a ratio I580/I520 was calculated for each concentration and taken according to the concentration in XCL (FIG. 4). […] Evidently, the titration curve is not complete as long as the saturation is not reached for the points with the strongest concentration. Due to the solubility limit of XCL and of the labelling protocol, the concentrations in protein cannot exceed 10 μM in this experiment.

[7] = 25° C., pH 8.5, double exponential model

B1: XCL: Xerocomus chrysenteron lectin, fungal sporocarp lectin forming a tetramer with central cavity, SEQ ID NO: 1 (protein)
chain: MSYSITLRVYQTNRDRGYFSIVEKTVWHFANGGTWSEANGAHTLTQGGSGTSGVLRFLSTKGERITVAVGVHNYKRWCDVVTGLKPDETALVINPQYYNNGGRDYVREKQLAEYSVTSAIGTKVEVVYTVAEGNNLEANVIFS
modifications: Xerocomus chrysenteron
For B1, the “a: proportion of molecules engaged in the slow reaction” value [1, 7] was 0.39, the “k1: kinetic constant of the slowest dissociation reaction” value [1, 7] was 0.72 min⁻¹ and the “k2: kinetic constant of the fastest dissociation reaction” value [1, 7] was 2.52 min⁻¹. For the same molecule, the “time until balance of fluorescence intensity at 580 nm is reached” value ([1]; mixing XCL-FITC and XCL-RITC) was “more than 300 seconds”, the “temperature after which the protein sample precipitates out” value ([2]; DOSY) was > 50 °C and the “hydrodynamic radius versus temperature” value ([2]; ratio of hydrodynamic radius of XCL and dioxane) was “no transition in the hydrodynamic radius is observed”. The “oligomeric state by elution volume at pH 4.4 with SDS” value ([3]; pH 4.4, 0.003% SDS) was “these dimers are dissociated into monomers”, the “oligomeric state by elution volume at pH 4.4” value ([3]; pH 4.4, no SDS) was “dissociation of the tetramer into a dimer” and the “temperature before which no modification of the 346 nm/330 nm Trp fluorescence ratio was observed (lectin remained tetrameric)” value [4] was < 50 °C. The “temperature beyond which the protein precipitates out (visual analysis after heating)” value ([4]; precipitates in tetrameric form) was > 45 °C, the “oligomeric form on SDS-PAGE” value [5] was “remained in tetrameric form” and the “concentration of the transition in energy transfer intensity (I580/I520)” value ([6]; 1 hour at ambient temperature) was “close to the micromolar”. For the same molecule, the “maximum protein concentration (solubility limit and labelling protocol)” value ([6]; labelled XCL in FRET experiment) was ≤ 10 µM.
